According to patent US20030134325A1:

How the values were obtained:
[1] = biological target: mouse immunoglobulin (MIgG); assay: binding to BIOMAG-MIgG; fluorescence
[2] = biological target: phycobilisome-GAM conjugate (glutaraldehyde-stabilized P. cruentum phycobilisomes conjugated to affinity-purified, Fc-specific goat anti-mouse IgG); assay: displacement of conjugate prebound to BIOMAG-RIgG (competitor RIgG); MIgG 10 ng/test
[3] = biological target: phycobilisome-GAM conjugate (glutaraldehyde-stabilized P. cruentum phycobilisomes conjugated to affinity-purified, Fc-specific goat anti-mouse IgG); assay: displacement of conjugate prebound to BIOMAG-RIgG (competitor RIgG); MIgG 10,000 ng/test
[4] = biological target: phycobilisome-GAM conjugate (glutaraldehyde-stabilized P. cruentum phycobilisomes conjugated to affinity-purified, Fc-specific goat anti-mouse IgG); assay: displacement of conjugate prebound to BIOMAG-RIgG (competitor RIgG); MIgG 100 ng/test
[5] = biological target: phycobilisome-GAM conjugate (glutaraldehyde-stabilized P. cruentum phycobilisomes conjugated to affinity-purified, Fc-specific goat anti-mouse IgG); assay: microtiter displacement of conjugate prebound to RIgG-coated wells (competitor RIgG); MIgG 1 ng/test
[6] = biological target: phycobilisome-GAM conjugate (glutaraldehyde-stabilized P. cruentum phycobilisomes conjugated to affinity-purified, Fc-specific goat anti-mouse IgG); assay: displacement of conjugate prebound to BIOMAG-RIgG (competitor RIgG); MIgG 1,000 ng/test
[7] = biological target: phycobilisome-GAM conjugate (glutaraldehyde-stabilized P. cruentum phycobilisomes conjugated to affinity-purified, Fc-specific goat anti-mouse IgG); assay: microtiter displacement of conjugate prebound to RIgG-coated wells (competitor RIgG); MIgG 10 ng/test
[8] = biological target: phycobilisome-GAM conjugate (glutaraldehyde-stabilized P. cruentum phycobilisomes conjugated to affinity-purified, Fc-specific goat anti-mouse IgG); assay: displacement of conjugate prebound to BIOMAG-RIgG (competitor RIgG); MIgG 1 ng/test
[9] = biological target: phycobilisome-GAM conjugate (glutaraldehyde-stabilized P. cruentum phycobilisomes conjugated to affinity-purified, Fc-specific goat anti-mouse IgG); assay: microtiter displacement of conjugate prebound to RIgG-coated wells (competitor RIgG); MIgG 100 ng/test
[10] = biological target: phycobilisome-GAM conjugate (glutaraldehyde-stabilized P. cruentum phycobilisomes conjugated to affinity-purified, Fc-specific goat anti-mouse IgG); assay: microtiter displacement of conjugate prebound to RIgG-coated wells (competitor RIgG); MIgG 1,000 ng/test
[11] = biological target: mouse immunoglobulin (MIgG); assay: photometric; PB-GAM 40 ug/test, soluble MIgG 0, BIOMAG-MIgG 300 ug/test
[12] = biological target: mouse immunoglobulin (MIgG); assay: competitive fluoroimmunoassay; 250 ng conjugate, 250 ug BIOMAG-MIgG per test; soluble MIgG 100 ng/test
[13] = biological target: mouse immunoglobulin (MIgG); assay: photometric; PB-GAM 3 ug/test, BIOMAG-MIgG 30 ug/test
[14] = biological target: mouse immunoglobulin (MIgG); assay: photometric; PB-GAM 3 ug/test, soluble MIgG 0, BIOMAG-MIgG 100 ug/test
[15] = biological target: mouse immunoglobulin (MIgG); assay: photometric; PB-GAM 3 ug/test, soluble MIgG 0, BIOMAG-MIgG 300 ug/test
[16] = biological target: mouse immunoglobulin (MIgG); assay: photometric; PB-GAM 12 ug/test, soluble MIgG 10 ug/test, BIOMAG-MIgG 30 ug/test
[17] = biological target: mouse immunoglobulin (MIgG); assay: photometric; PB-GAM 40 ug/test, soluble MIgG 10 ug/test, BIOMAG-MIgG 30 ug/test
rabbit IgG (RIgG) [18] = assay: microtiter displacement assay; conjugate prebound to RIgG-coated wells; MIgG 0 ng/test (baseline)
rabbit IgG (RIgG) [19] = assay: displacement assay; conjugate prebound to BIOMAG-RIgG; MIgG 0 ng/test (baseline)
[20] = biological target: mouse immunoglobulin (MIgG); assay: binding to BIOMAG-MIgG, solid phase in pseudo-excess; fluorescence
[21] = biological target: mouse immunoglobulin (MIgG); assay: photometric; PB-GAM 40 ug/test, soluble MIgG 10 ug/test, BIOMAG-MIgG 100 ug/test
[22] = biological target: mouse immunoglobulin (MIgG); assay: photometric; PB-GAM 12 ug/test, soluble MIgG 10 ug/test, BIOMAG-MIgG 300 ug/test
[23] = biological target: mouse immunoglobulin (MIgG); assay: 50 ul conjugate (80 ug/ml) + BIOMAG-MIgG 1 mg/test; soluble MIgG 10 ug/test
[24] = biological target: mouse immunoglobulin (MIgG); assay: photometric; PB-GAM 3 ug/test, BIOMAG-MIgG 100 ug/test
[25] = biological target: mouse immunoglobulin (MIgG); assay: photometric; PB-GAM 40 ug/test, BIOMAG-MIgG 100 ug/test
[26] = biological target: mouse immunoglobulin (MIgG); assay: photometric; PB-GAM 12 ug/test, soluble MIgG 0, BIOMAG-MIgG 300 ug/test
[27] = biological target: mouse immunoglobulin (MIgG); assay: photometric; PB-GAM 40 ug/test, soluble MIgG 0, BIOMAG-MIgG 30 ug/test
[28] = biological target: mouse immunoglobulin (MIgG); assay: photometric; PB-GAM 3 ug/test, soluble MIgG 10 ug/test, BIOMAG-MIgG 300 ug/test
[29] = biological target: mouse immunoglobulin (MIgG); assay: competitive fluoroimmunoassay; 250 ng conjugate, 250 ug BIOMAG-MIgG per test; soluble MIgG 1 ng/test
[30] = biological target: mouse immunoglobulin (MIgG); assay: photometric; PB-GAM 3 ug/test, soluble MIgG 0, BIOMAG-MIgG 30 ug/test
[31] = biological target: mouse immunoglobulin (MIgG); assay: photometric; PB-GAM 12 ug/test, BIOMAG-MIgG 300 ug/test
[32] = biological target: mouse immunoglobulin (MIgG); assay: 50 ul conjugate (80 ug/ml) + BIOMAG-MIgG 1 mg/test; soluble MIgG 0
[33] = biological target: mouse immunoglobulin (MIgG); assay: competitive fluoroimmunoassay; 250 ng conjugate, 250 ug BIOMAG-MIgG per test; soluble MIgG 1,000 ng/test
[34] = biological target: mouse immunoglobulin (MIgG); assay: photometric; PB-GAM 12 ug/test, BIOMAG-MIgG 100 ug/test
[35] = biological target: mouse immunoglobulin (MIgG); assay: photometric; PB-GAM 40 ug/test, soluble MIgG 10 ug/test, BIOMAG-MIgG 300 ug/test
[36] = biological target: mouse immunoglobulin (MIgG); assay: photometric; PB-GAM 12 ug/test, BIOMAG-MIgG 30 ug/test
[37] = biological target: mouse immunoglobulin (MIgG); assay: photometric; PB-GAM 12 ug/test, soluble MIgG 0, BIOMAG-MIgG 30 ug/test
[38] = biological target: mouse immunoglobulin (MIgG); assay: photometric; PB-GAM 12 ug/test, soluble MIgG 0, BIOMAG-MIgG 100 ug/test
[39] = biological target: mouse immunoglobulin (MIgG); assay: 50 ul conjugate (80 ug/ml) + BIOMAG-MIgG 1 mg/test; soluble MIgG 1 ng/test
[40] = biological target: mouse immunoglobulin (MIgG); assay: photometric; PB-GAM 12 ug/test, soluble MIgG 10 ug/test, BIOMAG-MIgG 100 ug/test
[41] = biological target: mouse immunoglobulin (MIgG); assay: photometric; PB-GAM 40 ug/test, BIOMAG-MIgG 300 ug/test
[42] = biological target: mouse immunoglobulin (MIgG); assay: competitive fluoroimmunoassay; 250 ng conjugate, 250 ug BIOMAG-MIgG per test; soluble MIgG 10 ng/test
[43] = biological target: mouse immunoglobulin (MIgG); assay: photometric; PB-GAM 3 ug/test, soluble MIgG 10 ug/test, BIOMAG-MIgG 30 ug/test
[44] = biological target: mouse immunoglobulin (MIgG); assay: photometric; PB-GAM 40 ug/test, BIOMAG-MIgG 30 ug/test
[45] = biological target: mouse immunoglobulin (MIgG); assay: photometric; PB-GAM 40 ug/test, soluble MIgG 0, BIOMAG-MIgG 100 ug/test
[46] = biological target: mouse immunoglobulin (MIgG); assay: competitive fluoroimmunoassay; 250 ng conjugate, 250 ug BIOMAG-MIgG per test; soluble MIgG 0
[47] = biological target: mouse immunoglobulin (MIgG); assay: photometric; PB-GAM 3 ug/test, soluble MIgG 10 ug/test, BIOMAG-MIgG 100 ug/test
[48] = biological target: mouse immunoglobulin (MIgG); assay: photometric; PB-GAM 3 ug/test, BIOMAG-MIgG 300 ug/test

GAM antibody conjugated by glutaraldehyde to formaldehyde-stabilized phycobilisomes
% specific binding [1]: 60%

mouse immunoglobulin (MIgG) (antibody)
% of maximal displacement [2]: 10.4% | E666 (supernatant fluorescence) [2]: 1.08e+06 cps | displacement [2]: 32000 cps | % of maximal displacement [3]: 100% | E666 (supernatant fluorescence) [3]: 1.36e+06 cps | displacement [3]: 309000 cps | % of maximal displacement [4]: 35.3% | E666 (supernatant fluorescence) [4]: 1.16e+06 cps | displacement [4]: 109000 cps | % of maximal displacement [5]: 36.8% | E666 (fluorescence) [5]: 411000 cps | displacement [5]: 68000 cps | % of maximal displacement [6]: 62.5% | E666 (supernatant fluorescence) [6]: 1.25e+06 cps | displacement [6]: 193000 cps | % of maximal displacement [7]: 73% | E666 (fluorescence) [7]: 478000 cps | displacement [7]: 135000 cps | % of maximal displacement [8]: 6.1% | E666 (supernatant fluorescence) [8]: 1.07e+06 cps | displacement [8]: 19000 cps | % of maximal displacement [9]: 98.4% | E666 (fluorescence) [9]: 525000 cps | displacement [9]: 182000 cps | % of maximal displacement [10]: 100% | E666 (fluorescence) [10]: 528000 cps | displacement [10]: 185000 cps

phycobilisome-GAM conjugate (glutaraldehyde-stabilized P. cruentum phycobilisomes conjugated to affinity-purified, Fc-specific goat anti-mouse IgG) (antibody)
Supernatant Absorbance [11]: 173 mAU/ml | % bound [12]: 0.8% | E666 [12]: 490000 cps | inhibition [12]: 116000 cps | % binding [13]: 0% | Supernatant Absorbance [14]: 10 mAU/ml | Supernatant Absorbance [15]: 4 mAU/ml | Supernatant Absorbance [16]: 66 mAU/ml | Supernatant Absorbance [17]: 210 mAU/ml | E666 (fluorescence) (rabbit IgG (RIgG) [18]): 343000 cps | E666 (supernatant fluorescence) (rabbit IgG (RIgG) [19]): 1.05e+06 cps | % specific binding [20]: < 60% | Supernatant Absorbance [21]: 212 mAU/ml | Supernatant Absorbance [22]: 66 mAU/ml | % bound [23]: 0% | MIgG inhibition [23]: 1.63e+06 cps | Supernatant E666 [23]: 3.88e+06 cps | % binding [24]: 16.7% | % binding [25]: 4.7% | Supernatant Absorbance [26]: 44 mAU/ml | Supernatant Absorbance [27]: 210 mAU/ml | Supernatant Absorbance [28]: 12 mAU/ml | % bound [29]: 19% | E666 [29]: 400000 cps | inhibition [29]: 26000 cps | Supernatant Absorbance [30]: 12 mAU/ml | % binding [31]: 33.3% | % bound [32]: 42.1% | Supernatant E666 [32]: 2.24e+06 cps | % bound [33]: 0% | E666 [33]: 494000 cps | inhibition [33]: 120000 cps | % binding [34]: 20.6% | Supernatant Absorbance [35]: 213 mAU/ml | % binding [36]: 4.5% | Supernatant Absorbance [37]: 63 mAU/ml | Supernatant Absorbance [38]: 54 mAU/ml | % bound [39]: 28% | MIgG inhibition [39]: 547000 cps | Supernatant E666 [39]: 2.79e+06 cps | Supernatant Absorbance [40]: 68 mAU/ml | % binding [41]: 18.8% | % bound [42]: 11.1% | E666 [42]: 439000 cps | inhibition [42]: 65000 cps | Supernatant Absorbance [43]: 12 mAU/ml | % binding [44]: 0% | Supernatant Absorbance [45]: 200 mAU/ml | % bound [46]: 24.3% | E666 [46]: 374000 cps | Supernatant Absorbance [47]: 12 mAU/ml | % binding [48]: 66.7%
